According to patent US8349320:

Columns and labels:
[1] = biological target: human HVEM (wild type) expressed on cells (human) (UniProt Q92956); test: flow cytometry saturation binding on 293T cells transfected with wild type HVEM
[2] = biological target: human HVEM mutant Y47F expressed on cells (human) (UniProt Q92956); test: flow cytometry saturation binding on 293T cells transfected with mutant HVEM
[3] = biological target: human HVEM mutant E76A expressed on cells (human) (UniProt Q92956); test: as above
Chain of human HVEM mutant E76A expressed on cells (human) (Q92956 39-283 E76A): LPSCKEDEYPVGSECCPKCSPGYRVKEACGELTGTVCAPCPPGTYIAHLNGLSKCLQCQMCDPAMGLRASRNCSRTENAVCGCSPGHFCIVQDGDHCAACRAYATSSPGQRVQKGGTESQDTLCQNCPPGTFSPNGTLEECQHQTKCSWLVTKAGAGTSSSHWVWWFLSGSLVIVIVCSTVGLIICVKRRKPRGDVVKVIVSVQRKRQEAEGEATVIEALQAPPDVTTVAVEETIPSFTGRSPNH

[4] = biological target: human HVEM mutant E65A expressed on cells (human) (UniProt Q92956); test: as above
Chain of human HVEM mutant E65A expressed on cells (human) (Q92956 39-283 E65A): as the sequence (Q92956 39-283 E76A) above, with E27A, A38E counted along it

[5] = biological target: human HVEM mutant K64A expressed on cells (human) (UniProt Q92956); test: as above
Chain of human HVEM mutant K64A expressed on cells (human) (Q92956 39-283 K64A): as the sequence (Q92956 39-283 E76A) above, with K26A, A38E counted along it

[6] = biological target: human HVEM mutant Y61F expressed on cells (human) (UniProt Q92956); test: as above
Chain of human HVEM mutant Y61F expressed on cells (human) (Q92956 39-283 Y61F): as the sequence (Q92956 39-283 E76A) above, with Y23F, A38E counted along it

[7] = biological target: human HVEM mutant R62A expressed on cells (human) (UniProt Q92956); test: as above
Chain of human HVEM mutant R62A expressed on cells (human) (Q92956 39-283 R62A): as the sequence (Q92956 39-283 E76A) above, with R24A, A38E counted along it

[8] = biological target: human HVEM mutant R113A expressed on cells (human) (UniProt Q92956); test: as above
Chain of human HVEM mutant R113A expressed on cells (human) (Q92956 39-283 R113A): as the sequence (Q92956 39-283 E76A) above, with A38E, R75A counted along it

[9] = biological target: human HVEM mutant S58A expressed on cells (human) (UniProt Q92956); test: as above
Chain of human HVEM mutant S58A expressed on cells (human) (Q92956 39-283 S58A): as the sequence (Q92956 39-283 E76A) above, with S20A, A38E counted along it

Chain of human HVEM mutant Y47F expressed on cells (human) (Q92956 39-283 Y47F): as the sequence (Q92956 39-283 E76A) above, with Y9F, A38E counted along it
Chain of human HVEM (wild type) expressed on cells (human) (Q92956 39-283): as the sequence (Q92956 39-283 E76A) above, with A38E counted along it

B1: recombinant soluble human LIGHT truncated at G66 (ligand, from a related filing)
chain: GEMVTRLPDGPAGSWEQLIQERRSHEVNPAAHLTGANSSLTGSGGPLLWETQLGLAFLRGLSYHDGALVVTKAGYYYIYSKVQLGGVGCPLGLASTITHGLYKRTPRYPEELELLVSQQSPCGRATSSSRVWWDSSFLGGVVHLEAGEEVVVRVLDERLVRLRDGTRSYFGAFMV
Kd [1]: 13 nM
Kd [2]: 14 nM
Kd [3]: 22 nM
Kd [4]: 18 nM
Kd [5]: 14 nM
Kd [6]: 17 nM
Kd [7]: 17 nM
Kd [8]: 18 nM
Kd [9]: 19 nM
